A word on the Kd: it is a measure of binding affinity in units of concentration.

Results on one substance are retold here after publication doi:10.1101/2020.06.22.166033.

The assay deals with SARS-CoV-2-RBD-AVI probe (SARS-CoV-2) (UniProt P0DTC2). Briefly: SPR. On the technique in general: Surface plasmon resonance follows binding to a sensor surface in real time, without labels.

Turning to CR3022 Fab, the Kd came out at 25 nM.
